Experimental findings from doi:10.1101/270363 are described below.

This experiment has as its target full length nPIST (1st - 463rd aa) (mouse) (UniProt Q8BH60). The experiment in a line: SPR.

On to “F-actin (filamentous actin) (from UniProt P68135 1-377) (natural protein)”, for which the Kd (in general, a measure of binding affinity in units of concentration) is 13.3 nM; the koff (as a rule, the first-order rate constant of dissociation) was 0.00123 s⁻¹; the on-rate constant (kon) (in general, the rate constant with which the complex forms) is 92500 M⁻¹ s⁻¹.
